The data set deals with the molecule itself. The data set can be described thus: gel filtration (Superdex 200) of His-tagged LP4 purified without detergent; lipid nanodisc. From the text:
In some embodiments, the presently disclosed compositions comprise a distinct form of polypeptides that are specifically engineered to spontaneously solubilize membrane proteins without a detergent intermediary (i.e., “LP” molecules). […] For example, in some embodiments the polypeptides comprise multiple repeats of an amphipathic helical fragment of ApoA1. […] The eluted protein was run on a gel filtration column (Superdex 200, FIG. 3, middle panel). […] The protein behaved as expected: it self-assembled as a dimer of appropriate size (as in FIG. 2) and solubilized a membrane fragment.
On the technique in general: Size exclusion chromatography separates by hydrodynamic size, large species first.

B1: histidine-tagged LP4 (designed binder)
chain: FQKKWQEEMELYRQKVEPLRAELQEGARQKLHELQEKLSPLGEEMRDRARAHVDAFQKKWQEEMELYRQKVEPLRAELQEGARQKLHELQEKLSPLGEEMRDRARAHVDAFQKKWQEEMELYRQKVEPLRAELQEGARQKLHELQEKLSPLGEEMRDRARAHVDAFQKKWQEEMELYRQKVEPLRAELQEGARQKLHELQEKLSPLGEEMRDRARAHVDA
notes: Histidine-tagged LP4 purified without detergent as an empty, lipid-filled nanodisc; not shown: histidine tag
On to B1, for which the binding result is on record as “binds”.

The values are drawn from patent US20110230650A1 (NORTHWESTERN UNIVERSITY, published 2011).
